Results from US20110044985A1.
Substitutions are numbered along the chain they refer to. In names and notes the source's numbering stands.

B1: 6G heavy chain mutant variant 7D (N101C) (antibody, V domains shown)
VH: QVQLVQSGAEVKKPGASVKVSCKASGYTFTTYAIHWVRQAPGQGLEWMGFTSPYSGVSNYNQKFKGRVTMTRDTSTSTVYMELSSLRSEDTAVYYCARFDCYDRGYVRDYWGQGTLVTVS
VL: DIVMTQSPDSLAVSLGERATINCRASESVDNDRISFLNWYQQKPGQPPKLLIYAATKQGTGVPDRFSGSGSGTDFTLTISSLQAEDVAVYYCQQSKEFPWSFGGGTKVEIKR
B2: 6G heavy chain mutant variant 9E (N101R) (antibody, V domains shown)
VH: B1 VH with C101R
VL: B1 VL

Biological target: Aβ1-40
Sequence (peptide, as listed by the source): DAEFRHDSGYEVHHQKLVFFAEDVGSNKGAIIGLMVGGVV
Test: ELISA, nonbiotinylated peptide on plate

Row | Binder | A450 ELISA [A450]
1 | B1 | 0.23
2 | B2 | 0.22
